Laboratory results taken from paper PMC3025356, “Mechanism of the Ca^2+-Dependent Interaction between S100A4 and Tail Fragments of Nonmuscle Myosin Heavy Chain IIA” (Journal of Molecular Biology, 2011).

B1: M32 myosin peptide (NM-MHC IIA A1907-G1938) (peptide, UniProt P35579-1 1907-1938, looked up)
peptide: Ac-ADAMNREVSSLKNKLRRGDLPFVVPRRMARKG-NH2
notes: nonmuscle myosin heavy chain IIA (NM-MHC IIA), human, residues A1907-G1938; source: synthetic peptide, bought: Peptide 2.0, Inc
B2: S100A4 (wild type, full-length) (natural protein)
chain: not shown
notes: S100A4, wild type, called full-length in the NMR experiment with M111; The tag and the vector are not described; also called Mts1; metastasin; source: E. coli BL21(DE3), purified (Ni-NTA, Superdex 75)
B3: M200, C-terminal fragment of human NM-MHC IIA (residues Q1761-E1960) (domain or fragment)
chain: QINTDLNLERSHAQKNENARQQLERQNKELKVKLQEMEGTVKSKYKASITALEAKIAQLEEQLDNETKERQAACKQVRRTEKKLKDVLLQVDDERRNAEQYKDQADKASTRLKQLKRQLEEAEEEAQRANASRRKLQRELEDATETADAMNREISSLKNKLRRGDLPFVVPRRMARKGAGDGSDEEVDGKADGAEAKPAE
modifications: Parallel coiled-coil dimer. N-terminal … tag omitted. The paper prints V1913I, but by its own numbering (D1908-R1923, G1938, G1940, D1941) 1913 is E and the only adjacent Val is V1914, so …
B4: M32 peptide (A1907-G1938 of human nonmuscle myosin heavy chain IIA) (peptide, UniProt P35579-1 1907-1938, looked up)
peptide: Ac-ADAMNREVSSLKNKLRRGDLPFVVPRRMARKG-NH2
notes: as for B1

Legend:
Settings in all cases: both partners purified
[1] = biological target: B2; assay: not stated; K0 of Scheme 1: binding in the absence of Ca2+; the experiment behind the limit is not told
[2] = biological target: B2; assay: fluorescence polarisation; competition: displacement of F-M16^N (5 μM) from S100A4 (5 μM) by increasing M32 or M16^N, with Ca2+; fit to a competitive single-site model with Kd of F-M16^N fixed at 2 μM
[3] = biological target: B2; assay: as above; remark: listed apart in the source
[4] = biological target: B2; assay: stopped-flow Quin-2 fluorescence (Ca2+ dissociation); S100A4 + Ca2+ premixed with peptide or fragment, mixed with 100 μM Quin-2; 100 mM NaCl, 10 mM Hepes, 100 μM Ca2+, pH 7.5, 20 °C (M16^N also in 20 mM NaCl, 20 mM Tris, 1 mM DTT); apparent
[5] = biological target: B3; assay: turbidity; apparent absorbance at 300 nm, manual mixing; 5 μM M200 filaments in 100 mM NaCl, 10 mM Hepes, 0.1 mM Ca2+, pH 7.5, 20 °C; S100A4 added, then EGTA, then Ca2+
[6] = biological target: B2; assay: turbidity; as a12 in the presence of 250 μM M32 or 250 μM M16^N (competition for S100A4)
[7] = biological target: B2; assay: turbidity; Ca2+ dependence of the turbidity assay of M200 with S100A4; details in Supplementary Data
[8] = biological target: B2; assay: stopped-flow Quin-2 fluorescence (Ca2+ dissociation); S100A4 + Ca2+ premixed with peptide or fragment, mixed with 100 μM Quin-2; 100 mM NaCl, 10 mM Hepes, 100 μM Ca2+, pH 7.5, 20 °C (M16^N also in 20 mM NaCl, 20 mM Tris, 1 mM DTT); apparent; remark: listed apart in the source
S100A4 (wild type) = biological target: T1, S100A4 (wild type) (UniProt P26447 1-101); assay: stopped-flow Quin-2 fluorescence (Ca2+ dissociation rate constant against [M32]); 10 uM S100A4 with Ca2+ premixed with M32 (0-50 uM), mixed with 100 uM Quin-2; kobs from single exponentials fitted against [M32] to a quadratic binding equation; apparent; legend says conditions as for Fig. 2c (taken as Fig. 5c: 100 mM NaCl, 10 mM Hepes, 100 uM Ca2+, pH 7.5, 20 C)
T1 construct: S100A4, wild type; predominantly a dimer under the conditions of the kinetic analysis; Concentrations are stated per monomer chain; only the Ni-NTA column is told; also called Mts1; metastasin; source: E. coli BL21(DE3), purified (Ni-NTA, Superdex 75 gel filtration)
T1 sequence (P26447 whole entry, one chain of several): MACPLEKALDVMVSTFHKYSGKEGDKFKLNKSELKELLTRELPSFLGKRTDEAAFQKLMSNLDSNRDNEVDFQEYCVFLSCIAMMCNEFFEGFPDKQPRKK

Binder: B1
Kd [1]: > 100000 nM
KD (model in which one M32 spans two S100A4 monomers) [2]: 1500 nM
Kd [3]: 3000 nM
Kd [4]: 400 nM

Binder: B2
stoichiometry N [5]: 2 S100A4 monomer per M200 polypeptide chain

Binder: B3
Kd [6]: ~1 nM
Kd [1]: > 100000 nM
Kd [7]: ≤ 3 nM
koff [8]: < 0.3 s⁻¹

Binder: B4
Kd (S100A4 (wild type)): 440 nM
